Tested on: MS2 coat protein
Experiment: apparent KD of MS2 coat protein; designed switch direction (-1 OFF switch, 1 ON switch): -1; higher = weaker reporter binding
Outline: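 For each design, the apparent KD is the median over clusters of curves fitted to normalised cluster fluorescence. Clusters held RNA switches with common flanks, transcribed on Illumina chips by stalled E. coli RNA polymerase. These were titrated with SNAP-549-labelled MS2 coat protein, doubling from 0.7 or 1.5 nM to 3 µM, without input, with 200 uM small-molecule ligand, or with an oligonucleotide input.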

[1] = input ligand: microRNA oligo, concentration not stated
[2] = Eterna round: R95, input ligand: FMN 200 uM
[3] = Eterna round: R95, input ligand: microRNA oligo, concentration not stated
[4] = Eterna round: R95, input ligand: none

Sequence: AAACGGGACUGAGGAUAUUCGUUCGAACACGAAGAAGAAGGUAGUGUCAGGGACAUGAGGAUCACCCAUGUGAACUCAGUCCCA [Erinle] (Eterna round: R96, puzzle: Exclusion NG 1)
- apparent KD of MS2 coat protein (input ligand: FMN 200 uM): 32.5 nM
- apparent KD of MS2 coat protein [1]: 21 nM
- apparent KD of MS2 coat protein (input ligand: none): 32.3 nM

Sequence: AAACUGCAUGUGAGGAUAUGCACCAGCUAAGCCGGGCAGAAGGCACAUGAGGAUCACCCAUGUCAUCCUAUUGC [Latibibe] (puzzle: Brourd's mod of Exclusion 4)
- apparent KD of MS2 coat protein [2]: 26.5 nM
- apparent KD of MS2 coat protein [3]: 11.6 nM
- apparent KD of MS2 coat protein [4]: 14.4 nM

Sequence: AAAGAACAUGAGGAUCACCCAUGUAAGGAUAUGCAAAGAAAGAAAGAAGAAAGAGAAAGCAGAAGGUACAAGAA [JR_Exclu1_Sub071] (puzzle: Exclusion 1)
- apparent KD of MS2 coat protein [2]: 34.4 nM
- apparent KD of MS2 coat protein [3]: 44.1 nM
- apparent KD of MS2 coat protein [4]: 36.8 nM

Sequence: AAAGAACUAGGAUAUACAUGAGGAUCACCCAUGUGCAGCUUAACGGCUCACACCUUAUGUAGAAGGAGUGACCG [Riorenar] (puzzle: Exclusion 3)
- apparent KD of MS2 coat protein [3]: 16 nM

Sequence: AAAGAUCAGGUGAGGAUAUACAUAUCGAAAGAUAUGUAGAAGGCACAUGAGGAUCACCCAUGUAUAAGGUUACC [Alacar 2] (Eterna round: R97, puzzle: Brourd's mod of Exclusion 4)
- apparent KD of MS2 coat protein (input ligand: FMN 200 uM): 313 nM
- apparent KD of MS2 coat protein (input ligand: none): 52.1 nM

Sequence: AAAGGGCAAGCAUGAUCCCACAUGAGGAUCACCCAUGUGUUCGUCUUAUAGGCUGCUGAGGCUUUUGCCUCGGUGGC [LRO Sensor-off var1-04 loose mod of D91 from Mat747] (Eterna round: R97, puzzle: Sensor, turn-off variant 1)
- apparent KD of MS2 coat protein (input ligand: FMN 200 uM): 484 nM
- apparent KD of MS2 coat protein (input ligand: none): 567 nM

Sequence: AAAUAACAAGCAAAAAACCACAUGAGGAUCACCCAUGUAAAGGGUGAAGUUCGCACCCAAAAAUAAAAUAAAAAAUA [Mat - Sensor v2 - Eli mod - 173] (Eterna round: R96, puzzle: Sensor v2, turn-off variant)
- apparent KD of MS2 coat protein (input ligand: FMN 200 uM): 29.1 nM
- apparent KD of MS2 coat protein [1]: 75 nM
- apparent KD of MS2 coat protein (input ligand: none): 28.3 nM

Sequence: AAAUAACAAGCGAGAUCCUACAUGAGGAUCACCCAUGUGCUCGUCUUAUAAAGUACUAUCACGAAAGUGAUAGUACA [Sensor 3, v1 - 13] (puzzle: Sensor v3, turn-off variant 1)
- apparent KD of MS2 coat protein [2]: 16.4 nM
- apparent KD of MS2 coat protein [3]: 50.8 nM
- apparent KD of MS2 coat protein [4]: 16.3 nM

Sequence: AAAUAACUAGGAUAUCGAGGCACAGACAUGAGGAUCACCCAUGUGUGGUCUUCGUGCUUACGAGAAGGAGUACGGC [Teceri] (Eterna round: R96, puzzle: Exclusion 5)
- apparent KD of MS2 coat protein (input ligand: FMN 200 uM): 199 nM
- apparent KD of MS2 coat protein [1]: 175 nM
- apparent KD of MS2 coat protein (input ligand: none): 305 nM

Sequence: AAAUAACUAGGAUAUCGAGGCACAGACAUGAGGAUCACCCAUGUGUGGUCUUCGUGCUUACGAGAAGGAGUACGGC [Teceri] (puzzle: Exclusion 5)
- apparent KD of MS2 coat protein [2]: 55.6 nM
- apparent KD of MS2 coat protein [3]: 168 nM
- apparent KD of MS2 coat protein [4]: 83.3 nM

Sequence: AAAUAAUAGAUAAAAUAAAACAUGAGGAUCACCCAUGUGGGAUGCUGAGGGUGAUACAAGCUUUUUGCUCGUCUUAU (puzzle: Sensor v3, turn-off variant 1)
- apparent KD of MS2 coat protein [2]: 210 nM
- apparent KD of MS2 coat protein [3]: 57.7 nM
- apparent KD of MS2 coat protein [4]: 182 nM

Sequence: AAAUAAUAGAUAAAAUAACACAUGAGGAUCACCCAUGUGCGAUGUUGAGGGUGAUACAGGCUUUUUGCUCGUCUUAU (Eterna round: R96, puzzle: Sensor v3, turn-off variant 1)
- apparent KD of MS2 coat protein (input ligand: FMN 200 uM): 155 nM
- apparent KD of MS2 coat protein [1]: 415 nM
- apparent KD of MS2 coat protein (input ligand: none): 133 nM

Sequence: AAAUAAUAGAUAAAAUAACACAUGAGGAUCACCCAUGUGCGAUGUUGAGGGUGAUACAGGCUUUUUGCUCGUCUUAU (puzzle: Sensor v3, turn-off variant 1)
- apparent KD of MS2 coat protein [2]: 98.7 nM
- apparent KD of MS2 coat protein [3]: 225 nM
- apparent KD of MS2 coat protein [4]: 132 nM

Sequence: AAAUAAUAGAUAAAAUAAUACAUGAGGAUCACCCAUGUGGGAUGCUGAGGGUGAUACAGGCUUUUUGCUCGUCUUAU (puzzle: Sensor v3, turn-off variant 1)
- apparent KD of MS2 coat protein [2]: 78.7 nM
- apparent KD of MS2 coat protein [3]: 16.3 nM
- apparent KD of MS2 coat protein [4]: 99.9 nM

Sequence: AAAUACAAGCAAAGAUCUUACAUGAGGAUCACCCAUGUGCUCGUCUUGUAAAGUACUAUCACGAAAGUGAUAGUACA [Sensor 3, v1 - 30] (puzzle: Sensor v3, turn-off variant 1)
- apparent KD of MS2 coat protein [2]: 23.1 nM
- apparent KD of MS2 coat protein [3]: 98.8 nM
- apparent KD of MS2 coat protein [4]: 20.4 nM

Sequence: AAAUACAAGCAAAGAUCUUACAUGAGGAUCACCCAUGUGCUCGUUUUAUAAAGUACUAUCACGAAAGUGAUAGUACA [Sensor 3, v1 - 31] (puzzle: Sensor v3, turn-off variant 1)
- apparent KD of MS2 coat protein [2]: 25 nM
- apparent KD of MS2 coat protein [3]: 93.4 nM
- apparent KD of MS2 coat protein [4]: 28.3 nM

Sequence: AAAUACAAGUAAAGAUCCUACAUGAGGAUCACCCAUGUGUUCGUCUUAUAAAGUACUAUCACGAAAGUGAUAGUACA [Sensor 3, v1 - 24] (puzzle: Sensor v3, turn-off variant 1)
- apparent KD of MS2 coat protein [2]: 89 nM
- apparent KD of MS2 coat protein [3]: 131 nM
- apparent KD of MS2 coat protein [4]: 131 nM

Sequence: AAAUACAAGUAAAGGUUCUACAUGAGGAUCACCCAUGUGCUCGUCUUAUAAAGUACUAUCACGAAAGUGAUAGUACA [Sensor 3, v1 - 39] (puzzle: Sensor v3, turn-off variant 1)
- apparent KD of MS2 coat protein [2]: 19.2 nM
- apparent KD of MS2 coat protein [3]: 92.5 nM
- apparent KD of MS2 coat protein [4]: 16 nM

Sequence: AAAUACAGAGGAUAUAUGGAAAACGACUUGAGGAUCACCCAAGUACGGGUGGCCUAACCCGUAGAAGGCUGCCAAA [Tibece] (Eterna round: R97, puzzle: Exclusion 5)
- apparent KD of MS2 coat protein (input ligand: FMN 200 uM): 72.5 nM
- apparent KD of MS2 coat protein (input ligand: none): 30.6 nM

Sequence: AAAUACCGGUGAGGAUAUUUUUAAUAGAGCUUUAUGAUAUACAUGAGGAUCACCCAUGUUACGUUAAAGAAGGCAUCGGAUAAA [Mat - Exclusion NG 2 - Mod of JL - D98] (Eterna round: R96, puzzle: Exclusion NG 2)
- apparent KD of MS2 coat protein [1]: 13.9 nM

Sequence: AAAUAGCUUGAGGAUAUUGGAUUGGAUUUAGUGCGAGAAGGCAAGACAUGAGGAUCACCCAUGUUGUGUUGGGA [EX6 #12] (Eterna round: R97, puzzle: Exclusion 6)
- apparent KD of MS2 coat protein (input ligand: FMN 200 uM): 72.7 nM
- apparent KD of MS2 coat protein (input ligand: none): 55.1 nM

Sequence: AAAUAGUUAGGAUAUACAUGAGGAUCACCCAUGUAGGGUUCCGUCAUGCAGAAAAUGCGUAGAAGGAACUAUCC [EX3 A.22] (Eterna round: R97, puzzle: Exclusion 3)
- apparent KD of MS2 coat protein (input ligand: FMN 200 uM): 16.6 nM
- apparent KD of MS2 coat protein (input ligand: none): 17.6 nM

Sequence: AAAUAUCAUGUAGGAUAUGGAAGGCGAACCUAUCCAGAAGGACAUGAGGAUCACCCAUGUGCUGAGUUGUCCGUAGACAGCUCU [Ex NG1 #3] (Eterna round: R96, puzzle: Exclusion NG 1)
- apparent KD of MS2 coat protein (input ligand: FMN 200 uM): 168 nM
- apparent KD of MS2 coat protein [1]: 27.1 nM
- apparent KD of MS2 coat protein (input ligand: none): 31 nM

Sequence: AAAUCGCAAGGAUAUCGUCAGUCUGACAUGAGGAUCACCCAUGUUAUCUUGGUAUCAGAGCGAGAAGGUGCAAAGU [Erbied] (Eterna round: R96, puzzle: Exclusion 5)
- apparent KD of MS2 coat protein (input ligand: FMN 200 uM): 10.8 nM
- apparent KD of MS2 coat protein [1]: 9.45 nM
- apparent KD of MS2 coat protein (input ligand: none): 14.6 nM

Sequence: AAAUCGCAAGGAUAUCGUCAGUCUGACAUGAGGAUCACCCAUGUUAUCUUGGUAUCAGAGCGAGAAGGUGCAAAGU [Erbied] (puzzle: Exclusion 5)
- apparent KD of MS2 coat protein [3]: 12.5 nM

Sequence: AAAUCUGAGGAGGAUAUGGUAUAGGAAAUGGUGCCAGAAGGUUUCACAUGAGGAUCACCCAUGUCAAAUAGUGA [EX6 #63] (Eterna round: R97, puzzle: Exclusion 6)
- apparent KD of MS2 coat protein (input ligand: FMN 200 uM): 45.7 nM
- apparent KD of MS2 coat protein (input ligand: none): 52.5 nM

Sequence: AAAUGCAAGCAAAGAUUCUACAUGAGGAUCACCCAUGUGCUCGUCUUAUAAAGUACUAUCACGAAAGUGAUAGUACA [Sensor 3, v1 - 34] (puzzle: Sensor v3, turn-off variant 1)
- apparent KD of MS2 coat protein [2]: 18.2 nM
- apparent KD of MS2 coat protein [3]: 88.3 nM
- apparent KD of MS2 coat protein [4]: 17.6 nM

Sequence: AAAUGCAAGUAAAGAUCCUACAUGAGGAUCACCCAUGUGCUCGUCUUAUAAAGUACUAUCACGAAAGUGAUAGUACA [Sensor 3, v1 - 21] (puzzle: Sensor v3, turn-off variant 1)
- apparent KD of MS2 coat protein [2]: 161 nM
- apparent KD of MS2 coat protein [3]: 30.2 nM
- apparent KD of MS2 coat protein [4]: 211 nM

Sequence: AAAUGGCAAGGAUAUACAGUAAUGAGGCUUAUGUCCGCUAAACAUGAGGAUCACCCAUGUAGAAGGUGCAAAGA [Maarear] (Eterna round: R97, puzzle: Exclusion 2)
- apparent KD of MS2 coat protein (input ligand: FMN 200 uM): 69.1 nM
- apparent KD of MS2 coat protein (input ligand: none): 42.4 nM

Sequence: AAAUUAAUGGUAAGGAUAUGAUGCAGGAAACUGCGUCAGAAGGUACAUGAGGAUCACCCAUGUUAAACUAAUUU [Explosion 9 - Jieux - Brourd's mod of Exclusion 4] (Eterna round: R97, puzzle: Brourd's mod of Exclusion 4)
- apparent KD of MS2 coat protein (input ligand: FMN 200 uM): 18.2 nM
- apparent KD of MS2 coat protein (input ligand: none): 14.2 nM

Sequence: AAAUUGGUAGAGGAUAUCGGACAGGAUUUACUGCGAGAAGGCUGCACAUGAGGAUCACCCAUGUUUUGUUGCGA [EX6 #34] (Eterna round: R97, puzzle: Exclusion 6)
- apparent KD of MS2 coat protein (input ligand: FMN 200 uM): 23.9 nM
- apparent KD of MS2 coat protein (input ligand: none): 25.7 nM

Sequence: AAAUUGGUAGAGGAUAUCGUACAGGAAACAAUGCGAGAAGGCUGCACAUGAGGAUCACCCAUGUUCAGUUGCGA [EX6 #40] (Eterna round: R97, puzzle: Exclusion 6)
- apparent KD of MS2 coat protein (input ligand: FMN 200 uM): 16.8 nM
- apparent KD of MS2 coat protein (input ligand: none): 15.2 nM

Sequence: AAAUUGGUAGAGGAUAUCGUACAGGAAACACUGCGAGAAGGCUGCACAUGAGGAUCACCCAUGUUCAGUUGCGA [EX6 #39] (Eterna round: R97, puzzle: Exclusion 6)
- apparent KD of MS2 coat protein (input ligand: FMN 200 uM): 17.3 nM
- apparent KD of MS2 coat protein (input ligand: none): 14.5 nM

Sequence: AAAUUGGUAGAGGAUAUCGUACAGGAAACGAUGCGAGAAGGUUGCACAUGAGGAUCACCCAUGUUUAGUUGCGA [EX6 #43] (Eterna round: R97, puzzle: Exclusion 6)
- apparent KD of MS2 coat protein (input ligand: FMN 200 uM): 23.3 nM
- apparent KD of MS2 coat protein (input ligand: none): 20.8 nM

— the supplement of paper PMC9170038
